We go through six molecules from publication PMC12657969.

Positions count from the first letter of the chain named.

In one series the target is T1, GgeAgo_DM (Geobacillus genomosp. 3, UniProt S5Z517 1-710, D502A;D571A).
T1 sequence: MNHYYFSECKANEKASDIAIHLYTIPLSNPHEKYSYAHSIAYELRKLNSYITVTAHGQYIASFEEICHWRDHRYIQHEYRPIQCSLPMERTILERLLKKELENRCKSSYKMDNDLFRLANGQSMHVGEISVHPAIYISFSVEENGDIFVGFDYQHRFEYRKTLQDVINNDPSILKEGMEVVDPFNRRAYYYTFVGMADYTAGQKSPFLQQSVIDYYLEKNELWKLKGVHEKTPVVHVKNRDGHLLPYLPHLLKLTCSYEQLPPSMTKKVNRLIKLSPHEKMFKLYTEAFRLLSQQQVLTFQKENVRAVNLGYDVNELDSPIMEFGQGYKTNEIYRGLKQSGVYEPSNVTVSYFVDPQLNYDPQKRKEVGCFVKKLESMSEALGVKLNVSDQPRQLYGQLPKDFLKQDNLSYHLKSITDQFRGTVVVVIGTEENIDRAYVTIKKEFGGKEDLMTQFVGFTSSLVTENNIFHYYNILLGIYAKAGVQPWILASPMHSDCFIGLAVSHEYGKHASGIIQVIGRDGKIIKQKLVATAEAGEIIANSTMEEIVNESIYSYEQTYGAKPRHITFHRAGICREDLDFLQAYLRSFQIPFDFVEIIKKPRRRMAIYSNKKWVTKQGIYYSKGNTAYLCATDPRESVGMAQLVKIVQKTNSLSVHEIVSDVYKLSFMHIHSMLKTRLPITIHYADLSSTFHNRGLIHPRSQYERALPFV
Description: fluorescence polarization.

In another series the target is T2, GgeAgo (Geobacillus genomosp. 3, UniProt S5Z517 1-710).
T2 sequence: T1 sequence with A502D, A571D
The series can be described thus: fluorescence polarization.

B1: 5'P-gDNA / T-tDNA target (mixed)
DNA 1: TGAGGTAGTAGGTTGTAT
DNA 2: AAACGACGGCCAGTGCCAAGCTTACTATACAACCTACTACCTCAT
modifications: guide 5' phosphate
A word on the Kd: it is a measure of binding affinity in units of concentration. B1 registered a Kd with GgeAgo_DM of 8.69 ± 1.28 nM.

B2: 5'OH-gDNA / T-tDNA target (mixed)
DNA 1: TGAGGTAGTAGGTTGTAT
DNA 2: B1 DNA 2
modifications: guide 5' OH
On to B2, for which, in the series with GgeAgo_DM, binding was characterised by a dissociation constant (Kd) of 20 ± 2.29 nM.

With TGAGGTAGTAGGTTGTAT (ssDNA, 5' OH) [5'OH-gDNA (T-gDNA iFAM)], binding with GgeAgo was put at a Kd of 11.1 ± 1.88 nM.

B3: 5'P-gDNA / U-tRNA (RNA target) (DNA:RNA)
DNA: TGAGGTAGTAGGTTGTAT
RNA: AAACGACGGCCAGUGCCAAGCUUACUAUACAACCUACUACCUCAU
modifications: guide 5' phosphate
Take B3: in the series with GgeAgo_DM, binding was characterised by a dissociation constant (Kd) of 10.7 ± 1.11 nM.

B4: 5'OH-gDNA / U-tRNA (RNA target) (DNA:RNA)
DNA: TGAGGTAGTAGGTTGTAT
RNA: B3 RNA
modifications: guide 5' OH
For B4, in the series with GgeAgo_DM, the affinity, expressed as Kd, was 32.2 ± 4.9 nM.

As to TGAGGTAGTAGGTTGTAT (ssDNA, 5' phosphate) [5'P-gDNA (T-gDNA iFAM)], in the series with GgeAgo, the Kd turned out to be 8.23 ± 1.47 nM.
